Reference: patent WO2021228904A1 (dated 2021)

Target: SARS-CoV-2 receptor binding domain (RBD), amino acids 319-541, octahistidine tag (SARS-CoV-2, UniProt P0DTC2 319-541)
Assay: not named there; ELISA in Example 4

| Binder | binding result |
| --- | --- |
| SEQ ID NOs: 653/657 (HCVR/LCVR) (antibody, V domains shown) VH: EVQLVESGGGLVQPGRSLRLSCAASGFTFDDYAMHWVRQAPGKGLEWVSGISWNSGSIGYADSVKGRFTISRDNAKNSLYLQMNSLRAEDTALYYCAKMGPDPAHDYGRKNDAFDIWGQGTMVTVSS VL: DIVMTQSPSSLSASVGDRVTITCRASQSMSSYLNWYQQKPGKAPKLLIYAASSLQSGVPSRFSGSGSGTDFTLTISSLQPEDFATYYCQQSYSTLTFGGGTKLEIK | binds |
| SEQ ID NOs: 661/665 (HCVR/LCVR) (antibody, V domains shown) VH: EVQLVESRAEMKKPGESLKISCKGSGYTFTNHWIAWVRQMPGKGLEWMGIIYPGDSDTRYSPSFEGQVTISADKSISTAYLQWSSLKASDTAMYYCARRGYTYGADFYGLDVWGQGTRVTVSS VL: not shown | binds |
| SEQ ID NOs: 493/497 (HCVR/LCVR) (antibody, V domains shown) VH: EVQLVQSGAEVKKPGESLKISCKGSGYSFTSYWIDWVRQMPGKGLEWMGIFYPGDSDTRYSPSFQGQVTISADKSISTAYLQWSSLKASDTAMYYCARHNPDYYDSSGPLDYWGQGTLVTVSS VL: not shown | binds |
| SEQ ID NOs: 217/221 (HCVR/LCVR) (antibody, V domains shown) VH: EVQLVESGGGLVQPGGSLRLSCAASGFTFSSYDMHWVRQTTGKGLQWVSAIGTAGDTYYPGSVKGRFTISRENAKNSLYLQMNSLRAGDTAVYYCARGGDRYPVGYFDLWGRGTLVTVSS VL: not shown | binds |
| 002_P2C4 (antibody, V domains shown) VH: QVQLVESGAEVKKPGSSVKVSCKASGGTFSSYGINWVRQAPGQGLEWMGGIIPIFGTANYAQKFQGRVTITTDESTSTAYMELSSLRSEDTAVYYCASFGDDSGDEGVRWGQGTLVTVSS VL: EIVMTQSPATLSLSPGERATLSCRASQSVSSYLAWYQQKPGQAPRLLIYDASNRATGIPARFSGSGSGTDFTLTISSLEPEDFAVYYCQQRSNWPPYTFGQGTKVEIK | binds |
| 001_P1G11 (antibody, V domains shown) VH: EVQLVQSGTEVKKPGASVKVSCKASGYTFPGYYIHWVRQAPGQGLEWMGWINPNSGVAKSAQKFQGRVTMTRDSSISTVYLDVTSDDTAVYYCARDLVWATVSGTMDVWGQGTTVTVSS VL: QSALTQPPSASGSPGQSVTISCTGTSSDIGTYNYVSWYQQHPGKAPKLMIYEVTKRPSGVPDRFSGSKSGNTASLTVSGLQADDEGDYYCSSYVGNNNWVFGGGTKLTVL | binds |
| SEQ ID NOs: 557/561 (HCVR/LCVR) (antibody, V domains shown) VH: EVQLVESGGGVVQPGRSLRLSCAASGFTFSSYAMHWVRQAPGKGLEWVAVISYDGSYKYYADSVKGRFTISRDNSKNTLYLQMNSLTAEDTAVYYCAREGSRQWLVIYFDYWGQGTLVTVSS VL: AIRMTQSPSSLSASVGDRVTITCRASQSISSYLNWYQQKPGKAPKLLIYAASSLQSGVPSRFSGSGSGTDFTLTISSLQPEDFATYYCQQSYTTFIYTFGQGTKLEIK | binds |
| SEQ ID NOs: 421/425 (HCVR/LCVR) (antibody, V domains shown) VH: EVQLVQSGAEVKKPGASVKVSCKASGYTFTSYDINWVRQATGQGLEWMGWMNPNSGNTGYAQKFQGRVTMTRNTSISTAYMELSSLRSEDTAVYYCARVVGSSWYPVDAFDIWGQGTRVTVSS VL: QSVLTQPASVSGSPGQSITISCTGTSSDVGGYNYVSWYQQHPGKAPKLMIYDVSNRPSGVSNRFSGSKSGNTASLTISGLQAEDEADYYCSSYTSSSTLVVFGGGTKLTVL | binds |
| SEQ ID NOs: 621/625 (HCVR/LCVR) (antibody, V domains shown) VH: QVQLVQSGAEVKKPGASVKVSCKVSGYTLTELSMHWVRQAPGKGLEWMGGFDPEDGETIYAQKFQGRVTMTEDTSTDTAYMELSSLRSEDTAVYYCATAYSVDTAMVRGVGYWGQGTLVTVSS VL: not shown | binds |
| SEQ ID NOs: 461/465 (HCVR/LCVR) (antibody, V domains shown) VH: EVQLVESGAEVKKPGSSVKVSCKASGGTFSSYAISWVRQAPGQGLEWMGGIIPIFGTANYAQKFQGRATITTDESTSTAYMELSSLGSEDTAVYYCARTHSYDNSGQYFDYWGQGTMVTVSS VL: DIVMTQSPATLSLSPGERATLSCRASQSVSSFLAWYQQKPGQAPRLLIYDASNRATGIPARFSGSGSGTDFTLTISSLEPEDFAVYYCQQRSNWPPRLTFGGGTKVDIK | binds |
| SEQ ID NOs: 57/61 (HCVR/LCVR) (antibody, V domains shown) VH: not shown VL: QSVLTQPASVSGSPGQSITISCTGTSSDVGGYNYVSWYQQHPGKAPKLMIYDVSNRPSGVSNRFSGSKSGNTASLTISGLQAEDEADYYCSSYTSSSTRHWVFGGGTKLTVL | binds |
| SEQ ID NOs: 73/77 (HCVR/LCVR) (antibody, V domains shown) VH: EVQLVESGGGLVQPGGSLRLSCAASGFTVTSTYMTWVRRAPGKGLEWVSIIYNDDTTYYADSVKDRVTVSRDDSKNTLYLQMNSLRAEDTAIYYCARGGYYYDPSGYYSRSFSFDYWGQGTLVTVSS VL: NFMLTQPASVSGSPGQSITISCTGSSSDIAPYTFVSWYQQHSGTAPKLIIYDVRNRPSGISDRFSGSRSGNTASLSISGLQAEDEADYYCSAYTTTSTSWVFGGGTKLTVL | binds |
